Data as given in US20020110800A1, “Use of SHP-1 and SHP-2 to detect compounds involved in neuronal survival” (McGill University, priority 1997, published 2002).

Tested on: SHP-2
Assay: BDNF-stimulated association of SHP-2 with tyrosine-phosphorylated proteins in cortical neurons
Format: cell-based, rat
Source text: FIG. 5 is a Western blot showing that BDNF stimulates the association of SHP-2 with tyrosine phosphorylated proteins in cortical neurons. Lysates prepared from cortical neurons treated with or without BDNF were immunoprecipitated with anti-SHP-2 antibody and probed with anti-pTyr antibody.
To determine the mechanism whereby the neutrotrophins stimulate the survival and growth of normal and injured neurons, we have asked whether the phosphoprotein phosphatases SHP-1 and SHP-2 play a role in the differentiation and survival of primary neurons, focusing our studies on cultured rat sympathetic cervical ganglion (SCG) and cortical neurons in order to determine the exact nature of this regulation.
Immunoprecipitations and immunoblotting were performed as previously described (Kaplan et al., Science, 252:554-558, 1991). […]

B1: BDNF: brain-derived neurotrophic factor, a neurotrophin, obtained from Peprotech (protein, UniProt P23560 19-247, looked up)
Neurotrophic factor BDNF …: APMKEANIRGQGGLAYPGVRTHGTLESVNGPKAGSRGLTSLADTFEHVIEELLDEDQKVRPNEENNKDADLYTSRVMLSSQVPLEPPLLFLLEEYKNYLDAANMSMRVRRHSDPARRGELSVCDSISEWVTAADKKTAVDMSGGTVTVLEKVPVSKGQLKQYFYETKCNPMGYTKEGCRGIDKRHWNSQCRTTQSYVRALTMDSKKRIGWRFIRIDTSCVCTLTIKRGR
For B1, the “association of tyrosine-phosphorylated proteins with SHP-2” value was “causes the association of tyrosine-phosphorylated proteins with SHP-2”.
